Measured values published in patent US11752086B2, “Topical formulations and methods” (MYOCEPT INC., priority 2017, dated 2023).

Experiment: isoelectric point (pI) as stated
Assay type: physicochemical
Procedure: For the second study this procedure was modified to include a chromatographic enrichment/purification step over a HiTrap SP-Sepharose cation exchange column (GE Healthcare). Both MCPT-201 and alpha cobratoxin are highly positively charged proteins with a pI of 8.2. They are routinely purified on cation exchange resigns such as SP-Sepharose. The sample buffer in the Franz cell receiving chamber was changed to 50 mM MES-NaOH, 20 mM NaCl, 0.1 mM EDTA, pH 6.0 in order to make samples directly compatible with cation exchange chromatography over SP-Sepharose.

alpha cobratoxin
pI: 8.2
